Measurements from paper PMC10723112 (Nature chemical biology, 2023).
Non-standard residues stand in square brackets, D forms with d. No end group written: not given here. pY = N[C@@H](Cc1ccc(OP(=O)(O)O)cc1)C(=O)O

How the values were obtained:
[1] = biological target: 5-FAM-SMG9 peptide (human) (UniProt Q9H0W8); assay: fluorescence polarisation
OGT = biological target: T1, OGT (Homo sapiens, UniProt O15294); assay: Competitive fluorescence polarization; details: FP competition with 5-FAM-SMG9 for OGT binding, n=3
T1 sequence (O15294 1-1046): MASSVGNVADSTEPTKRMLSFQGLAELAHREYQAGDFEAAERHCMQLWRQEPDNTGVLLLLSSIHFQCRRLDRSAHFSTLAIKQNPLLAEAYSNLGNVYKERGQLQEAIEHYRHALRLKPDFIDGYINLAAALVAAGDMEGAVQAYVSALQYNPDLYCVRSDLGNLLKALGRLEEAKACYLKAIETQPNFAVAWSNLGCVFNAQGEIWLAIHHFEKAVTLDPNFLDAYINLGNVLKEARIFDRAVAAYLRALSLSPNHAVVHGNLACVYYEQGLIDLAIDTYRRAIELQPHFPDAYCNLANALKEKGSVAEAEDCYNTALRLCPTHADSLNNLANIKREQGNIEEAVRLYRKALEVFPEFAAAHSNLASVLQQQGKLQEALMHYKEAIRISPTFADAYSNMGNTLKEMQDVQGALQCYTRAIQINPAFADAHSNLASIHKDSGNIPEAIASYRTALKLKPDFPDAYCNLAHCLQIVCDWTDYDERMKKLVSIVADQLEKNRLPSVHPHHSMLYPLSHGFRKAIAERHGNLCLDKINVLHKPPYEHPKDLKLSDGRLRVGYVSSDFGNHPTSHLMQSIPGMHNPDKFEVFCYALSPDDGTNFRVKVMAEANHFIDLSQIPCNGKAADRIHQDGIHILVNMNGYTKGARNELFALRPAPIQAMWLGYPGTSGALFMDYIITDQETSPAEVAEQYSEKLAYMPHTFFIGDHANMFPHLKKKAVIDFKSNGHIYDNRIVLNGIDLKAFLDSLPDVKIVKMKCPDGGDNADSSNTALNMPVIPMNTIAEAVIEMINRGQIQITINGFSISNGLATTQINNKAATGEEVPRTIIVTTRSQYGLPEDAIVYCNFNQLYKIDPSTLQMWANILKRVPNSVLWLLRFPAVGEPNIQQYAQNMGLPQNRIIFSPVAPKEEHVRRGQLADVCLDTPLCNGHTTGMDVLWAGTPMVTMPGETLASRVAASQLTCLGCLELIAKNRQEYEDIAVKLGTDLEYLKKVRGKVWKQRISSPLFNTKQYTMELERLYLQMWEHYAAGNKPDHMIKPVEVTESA

| Substance | fold shift of EC50 against WT OGT [1] | peptide binding to OGT (OGT) |
| --- | --- | --- |
| OGT F723E (enzyme) | > 10 fold |  |
| OGT I734R (enzyme) | > 10 fold |  |
| OGT N791A (enzyme) | > 10 fold |  |
| SMG9 pY147: phosphorylated SMG9 peptide (pY147) (QRPTQPV[pY]QIQNRGMG) |  | disrupted peptide binding, to a similar degree as Y147F |
